Measured values from PMC4772501 (The Journal of Cell Biology, 2016).

T1: Cdc3 (S. cerevisiae, UniProt P32457 1-520)
T1 sequence: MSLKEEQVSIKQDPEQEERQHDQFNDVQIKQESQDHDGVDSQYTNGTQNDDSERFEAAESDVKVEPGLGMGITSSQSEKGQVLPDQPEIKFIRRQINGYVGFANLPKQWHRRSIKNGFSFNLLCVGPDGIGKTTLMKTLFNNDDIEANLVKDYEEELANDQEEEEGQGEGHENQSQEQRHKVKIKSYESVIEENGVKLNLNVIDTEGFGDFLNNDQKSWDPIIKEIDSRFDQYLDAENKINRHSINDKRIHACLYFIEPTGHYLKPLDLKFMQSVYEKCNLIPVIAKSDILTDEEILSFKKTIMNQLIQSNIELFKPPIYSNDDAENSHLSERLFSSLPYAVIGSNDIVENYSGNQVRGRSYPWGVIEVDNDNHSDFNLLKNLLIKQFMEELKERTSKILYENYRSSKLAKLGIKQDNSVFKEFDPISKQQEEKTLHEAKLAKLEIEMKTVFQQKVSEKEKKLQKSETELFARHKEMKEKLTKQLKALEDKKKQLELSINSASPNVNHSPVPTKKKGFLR

B1: Cdc10 (natural protein)
chain: MDPLSSVQPASYVGFDTITNQIEHRLLKKGFQFNIMVVGQSGLGKSTLINTLFASHLIDSATGDDISALPVTKTTEMKISTHTLVEDRVRLNINVIDTPGFGDFIDNSKAWEPIVKYIKEQHSQYLRKELTAQRERFITDTRVHAILYFLQPNGKELSRLDVEALKRLTEIANVIPVIGKSDTLTLDERTEFRELIQNEFEKYNFKIYPYDSEELTDEELELNRSVRSIIPFAVVGSENEIEINGETFRGRKTRWSAINVEDINQCDFVYLREFLIRTHLQDLIETTSYIHYEGFRARQLIALKENANSRSSAHMSSNAIQR
B2: Spr28 (natural protein)
chain: MFPMKDHSALEQHTLSRDELRRRKGYKKGLQLSILLLGEKGSGKSTFLNNLCGQDISLSDGDYDDDDDKVTNNVTPENGNAIEDIDPGYKTAHLSPGLKLVTRRVYLNDELGVPITLDIILFPGCGDNVDNSQSSVVIKNYLDQQFANVLKEEVRIKRNTKETDGRPHVCLYFLKSTPRGVKKFDIELMKTICDKVNLIPIIPKADGLTETELNLHKDIVRQEISQNNIRVFDFKSDTLGETLALYDMDIDSSSAKSKYDNDTKIKEISPFAIVCSKTFNKNSENRVEHIRTYEWGSLVVEDQNTSDFIYLKAILLGSHLQELKDVTNNVLYENYRAKVLTEKKNNYDIPNYSYIDETSRGSVSNVSTRRNSASRTLGNPDTNDENAYQIHKEIDEKNRIIEDYQRKIDLLEKMLAAPHQNKV
B3: (His)6Spr3 (natural protein)
chain: MKSKGSRLSTDCPVEFPKIVSGFAEEVKIRRQSSQGQYAVDSHPPKSPELKHRRQRSSSFVNGKCRNRDLPLLDNKKAQEINTNSHGQDIGIKNLPRQRELLNAKNGIDFTLMVAGQSGLGKTTFINSLFSTSLIDDDIKENKPIIRYKSIVEGDGTHLNFNVIDTPGFGNNMDNAFTWRTMVNYIDEEIRSYIFQEEQPDRTKMVDNRVHCCLYFLRPSNKGIDTLDVVTMKKLAKRVNLIPVIAKSDLLTKEELKNFKTQVREIIRVQDIPVCFFFGDEVLNATQDIFQKYPFSIIASNEYIFNEKGEKVKGRQYKWGAVDIENEKYCDFKILQKTIFDWNLIDLVESTEDYYEKCRSEMLRTRLLKARDCLTTKSVDITEEQRKFLEEEMNFDEIEENKLKNYKCYEIINKTVMDKVATEWDPEFITRQLEAKKKFNELSNREISKFRDWKKSLFMEQENFNQEIEQLNHKLENLQLECQDLEYKLLIGKSSNSHSTDSATLVNVHIKR

Experiments:
(His)6Spr3 [1] = molecular target: B3; assay: pull-down
Cdc3 [2] = molecular target: T1, Cdc3; assay: negative-stain EM, single-particle class averages
[3] = molecular target: the molecule itself; assay: negative-stain EM, single-particle class averages
(His)6Spr3 [4] = molecular target: B3; assay: negative-stain EM, single-particle class averages
Cdc3 [5] = molecular target: T1, Cdc3; assay: pull-down

Binder: B1
binding result ((His)6Spr3 [1]): binds
binding result (Cdc3 [2]): binds
binding result [3]: binds

Binder: B2
binding result ((His)6Spr3 [4]): binds

Binder: B3
binding result (Cdc3 [5]): binds
